We go through one sequence from publication PMC4867592, “Targeting multiple response regulators of Mycobacterium tuberculosis augments the host immune response to infection” (Scientific Reports, 2016).

Experiment in all cases: EMSA
A general note: A gel shift assay detects complexes by their altered migration in electrophoresis.

The target of one series is T1, RegX3 K204A K204A (UniProt P9WGL9).
T1 sequence: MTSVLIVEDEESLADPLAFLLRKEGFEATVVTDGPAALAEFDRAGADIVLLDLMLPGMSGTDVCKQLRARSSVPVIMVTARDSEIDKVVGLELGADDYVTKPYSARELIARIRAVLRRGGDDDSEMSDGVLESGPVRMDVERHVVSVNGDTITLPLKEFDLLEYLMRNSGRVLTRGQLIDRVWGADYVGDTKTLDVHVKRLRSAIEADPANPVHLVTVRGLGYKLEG

Another series has as its target T2, RegX3 L201A L201A (UniProt P9WGL9).
T2 sequence: T1 sequence with L201A, A204K

Another series addresses T3, RegX3 R202A R202A (UniProt P9WGL9).
T3 sequence: T1 sequence with R202A, A204K

Positions count from the first letter of the chain named.

With “ACCGGCTTGGGACCGGCACCGCGGTACTGTGTGCGTTCGGCACCGCGCTGCACCCGCGGTTCGGGCCGGATTCGTCCGCGCGGCACCGCCGTTCGGGCGC (double strand) [ppK1 promoter fragment]”, the binding result is reported as “no binding” in the series with RegX3 K204A K204A, “no binding” with RegX3 L201A L201A and “binds” in the series with RegX3 R202A R202A.
